Test results published in patent US20220096649A1.

Key:
SIRP-α human v1 (human) = SIRP-α human v1 (human) (UniProt P78324); assay: SPR, antibody on GLC chip, SIRP as analyte
[1] = biological target: SIRP-α mouse NOD (mouse (NOD)) (UniProt P97797); assay: SPR, antibody on GLC chip, SIRP as analyte
[2] = biological target: SIRP-α mouse BALBc (mouse (BALBc)) (UniProt P97797); assay: SPR, antibody on GLC chip, SIRP as analyte
[3] = biological target: SIRP-α mouse BALBc (mouse (BALBc)) (UniProt P97797); assay: SPR, antibody on GLC chip, SIRP as analyte; Mouse BALBc SIRP-α allele
[4] = biological target: SIRP-α mouse NOD (mouse (NOD)) (UniProt P97797); assay: SPR, antibody on GLC chip, SIRP as analyte; Mouse NOD SIRP-α allele

Sequence of SIRP-α human v1 (human) (P78324 31-149): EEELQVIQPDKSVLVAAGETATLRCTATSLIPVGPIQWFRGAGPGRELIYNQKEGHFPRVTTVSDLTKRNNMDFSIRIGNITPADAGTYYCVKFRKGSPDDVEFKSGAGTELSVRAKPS

Binder	Kd (SIRP-α human v1 (human)) [nM]	Kd [1] [nM]	Kd [2] [nM]	Kd [3] [nM]	Kd [4] [nM]
Anti-SIRP-α antibody 119, light chain wt, heavy chain wt (antibody, V domains shown) VH: EVQLLESGGGVVQPGGSLRLSCAASGFSFSNFAMTWVRQAPGEGLEWVSTIGSGDTYYADSVKGRFTISRDNSKNTLYLQMNSLRAEDTAVYYCAKDSTVSWSGDFFDYWGLGTLVTVSS VL: EIVLTQSPATLSVSPGERATFSCRASQNVKNDLAWYQQRPGQAPRLLIYAARIRETGIPERFSGSGSGTEFTLTITSLQSEDFAVYYCQQYYDWPPFTFGGGTKVEIK	0.18	–	–	–	–
Anti-SIRP-α antibody 135, light chain Mut, heavy chain Mut (antibody, V domains shown) VH: EVQLVESGGGVVQPGGSLRLSCAASGFSFSIYAVSWVRQAPGKGLEWVSTIGADDTYYADSVKGRFTISRDNSKNTLYLQMNSLRAEDTAVYYCAKDSTVGWSGDFFDYWGQGTLVTVSS VL: EIVLTQSPATLSVSPGERVTLSCRASQNVRSDIAWYQQKPGQAPRLLIYAASSRDTGIPARFSGSGSGTDFTLTISSLQSEDFGVYYCQQYYDWPPFTFGGGTKVEIK	0.19	–	–	–	–
Anti-SIRP-α antibody 119, light chain Mut, heavy chain Mut (antibody, V domains shown) VH: EVQLLESGGGVVQPGGSLRLSCAASGFSFSNFAVTWVRQAPGKGLEWVSTIGSGDTYYADSVKGRFTISRDNSKNTLYLQMNSLRAEDTAVYYCAKDSTVSWSGDFFDYWGQGTLVTVSS VL: EIVLTQSPATLSVSPGERATLSCRASQNVKNDLAWYQQKPGQAPRLLIYAARIRETGIPARFSGSGSGTEFTLTISSLQSEDFAVYYCQQYYDWPPFTFGGGTKVEIK	0.32	–	–	–	–
Anti-SIRP-α antibody 135, light chain wt, heavy chain Mut (antibody, V domains shown) VH: EVQLVESGGGVVQPGGSLRLSCAASGFSFSIYAVSWVRQAPGKGLEWVSTIGADDTYYADSVKGRFTISRDNSKNTLYLQMNSLRAEDTAVYYCAKDSTVGWSGDFFDYWGQGTLVTVSS VL: EIVLTQSPATLSVSPGERVTFSCRASQNVRSDIAWYQQKPGQAPRLLIYAASSRDTGIPDRFSGSGSGTDFTLTISSLQSEDFGVYYCQQYYDWPPFTFGGGTKVEIK	0.18	–	–	–	–
Anti-SIRP-α antibody 119, light chain Mut, heavy chain Mut_V34M (antibody, V domains shown) VH: EVQLLESGGGVVQPGGSLRLSCAASGFSFSNFAMTWVRQAPGKGLEWVSTIGSGDTYYADSVKGRFTISRDNSKNTLYLQMNSLRAEDTAVYYCAKDSTVSWSGDFFDYWGQGTLVTVSS VL: EIVLTQSPATLSVSPGERATLSCRASQNVKNDLAWYQQKPGQAPRLLIYAARIRETGIPARFSGSGSGTEFTLTISSLQSEDFAVYYCQQYYDWPPFTFGGGTKVEIK	0.22	–	–	–	–
Anti-SIRP-α antibody 119, light chain Mut, heavy chain wt (antibody, V domains shown) VH: EVQLLESGGGVVQPGGSLRLSCAASGFSFSNFAMTWVRQAPGEGLEWVSTIGSGDTYYADSVKGRFTISRDNSKNTLYLQMNSLRAEDTAVYYCAKDSTVSWSGDFFDYWGLGTLVTVSS VL: EIVLTQSPATLSVSPGERATLSCRASQNVKNDLAWYQQKPGQAPRLLIYAARIRETGIPARFSGSGSGTEFTLTISSLQSEDFAVYYCQQYYDWPPFTFGGGTKVEIK	0.21	–	–	–	–
Anti-SIRP-α antibody 119, light chain wt, heavy chain Mut (antibody, V domains shown) VH: EVQLLESGGGVVQPGGSLRLSCAASGFSFSNFAVTWVRQAPGKGLEWVSTIGSGDTYYADSVKGRFTISRDNSKNTLYLQMNSLRAEDTAVYYCAKDSTVSWSGDFFDYWGQGTLVTVSS VL: EIVLTQSPATLSVSPGERATFSCRASQNVKNDLAWYQQRPGQAPRLLIYAARIRETGIPERFSGSGSGTEFTLTITSLQSEDFAVYYCQQYYDWPPFTFGGGTKVEIK	0.25	–	–	–	–
Anti-SIRP-α antibody 136, light chain Mut_Q38E, heavy chain Mut (antibody, V domains shown) VH: EVQLVESGGGVVQPGRSLRLSCAASGFTFSSYDVNWVRQAPGKGLEWVSLISGSGEIIYYADSVKGRFTISRDNSKNTLYLQMNSLRAEDTAVYYCAKENNRYRFFDDWGQGTLVTVSS VL: EIVLTQSPGTLSLSPGERATLSCRASQSVYTYLAWYQEKPGQAPRLLIYGASSRATGIPDRFSGSGSGTEFTLTISSLQSEDFAVYYCQQYYDRPPLTFGGGTKVEIK	6.2	6	3	–	–
Anti-SIRP-α antibody 136, light chain Mut, heavy chain Mut (antibody, V domains shown) VH: EVQLVESGGGVVQPGRSLRLSCAASGFTFSSYDVNWVRQAPGKGLEWVSLISGSGEIIYYADSVKGRFTISRDNSKNTLYLQMNSLRAEDTAVYYCAKENNRYRFFDDWGQGTLVTVSS VL: EIVLTQSPGTLSLSPGERATLSCRASQSVYTYLAWYQQKPGQAPRLLIYGASSRATGIPDRFSGSGSGTEFTLTISSLQSEDFAVYYCQQYYDRPPLTFGGGTKVEIK	7.3	5.2	3.1	–	–
Anti-SIRP-α antibody 136, light chain Mut_S12T, heavy chain Mut (antibody, V domains shown) VH: EVQLVESGGGVVQPGRSLRLSCAASGFTFSSYDVNWVRQAPGKGLEWVSLISGSGEIIYYADSVKGRFTISRDNSKNTLYLQMNSLRAEDTAVYYCAKENNRYRFFDDWGQGTLVTVSS VL: EIVLTQSPGTLTLSPGERATLSCRASQSVYTYLAWYQQKPGQAPRLLIYGASSRATGIPDRFSGSGSGTEFTLTISSLQSEDFAVYYCQQYYDRPPLTFGGGTKVEIK	4.9	2.9	2.1	–	–
Anti-SIRP-α antibody 136, light chain Mut_S22T, heavy chain Mut (antibody, V domains shown) VH: EVQLVESGGGVVQPGRSLRLSCAASGFTFSSYDVNWVRQAPGKGLEWVSLISGSGEIIYYADSVKGRFTISRDNSKNTLYLQMNSLRAEDTAVYYCAKENNRYRFFDDWGQGTLVTVSS VL: EIVLTQSPGTLSLSPGERATLTCRASQSVYTYLAWYQQKPGQAPRLLIYGASSRATGIPDRFSGSGSGTEFTLTISSLQSEDFAVYYCQQYYDRPPLTFGGGTKVEIK	5	2.4	1.6	–	–
Anti-SIRP-α antibody 136, light chain Mut_I2T, heavy chain Mut (antibody, V domains shown) VH: EVQLVESGGGVVQPGRSLRLSCAASGFTFSSYDVNWVRQAPGKGLEWVSLISGSGEIIYYADSVKGRFTISRDNSKNTLYLQMNSLRAEDTAVYYCAKENNRYRFFDDWGQGTLVTVSS VL: ETVLTQSPGTLSLSPGERATLSCRASQSVYTYLAWYQQKPGQAPRLLIYGASSRATGIPDRFSGSGSGTEFTLTISSLQSEDFAVYYCQQYYDRPPLTFGGGTKVEIK	0.72	0.68	0.42	–	–
Anti-SIRP-α antibody 136, light chain Mut_I2T, heavy chain Mut_V34M (antibody, V domains shown) VH: EVQLVESGGGVVQPGRSLRLSCAASGFTFSSYDMNWVRQAPGKGLEWVSLISGSGEIIYYADSVKGRFTISRDNSKNTLYLQMNSLRAEDTAVYYCAKENNRYRFFDDWGQGTLVTVSS VL: ETVLTQSPGTLSLSPGERATLSCRASQSVYTYLAWYQQKPGQAPRLLIYGASSRATGIPDRFSGSGSGTEFTLTISSLQSEDFAVYYCQQYYDRPPLTFGGGTKVEIK	0.55	0.6	0.36	–	–
Anti-SIRP-α antibody 136, light chain wt, heavy chain Mut (antibody, V domains shown) VH: EVQLVESGGGVVQPGRSLRLSCAASGFTFSSYDVNWVRQAPGKGLEWVSLISGSGEIIYYADSVKGRFTISRDNSKNTLYLQMNSLRAEDTAVYYCAKENNRYRFFDDWGQGTLVTVSS VL: ETVLTQSPGTLTLSPGERATLTCRASQSVYTYLAWYQEKPGQAPRLLIYGASSRATGIPDRFSGSGSGTEFTLTISSLQSEDFAVYYCQQYYDRPPLTFGGGTKVEIK	0.56	0.68	0.42	–	–

Now those with a lower Kd (SIRP-α human v1 (human)), led by results:

Kd (SIRP-α human v1 (human)) [nM]	Kd [1] [nM]	Kd [2] [nM]	Kd [3] [nM]	Kd [4] [nM]	Binder
0.15	–	–	–	–	Anti-SIRP-α antibody 135, light chain wt, heavy chain Mut_V34M (antibody, V domains shown) VH: EVQLVESGGGVVQPGGSLRLSCAASGFSFSIYAMSWVRQAPGKGLEWVSTIGADDTYYADSVKGRFTISRDNSKNTLYLQMNSLRAEDTAVYYCAKDSTVGWSGDFFDYWGQGTLVTVSS VL: EIVLTQSPATLSVSPGERVTFSCRASQNVRSDIAWYQQKPGQAPRLLIYAASSRDTGIPDRFSGSGSGTDFTLTISSLQSEDFGVYYCQQYYDWPPFTFGGGTKVEIK
0.15	–	–	–	–	Anti-SIRP-α antibody 135, light chain wt, heavy chain wt (antibody, V domains shown) VH: DVQLVESGGGVVRPGESLRLSCAASGFSFSIYAMSWVRQAPGEGLEWVSTIGADDTYYADSVKGRFTISRDNSKNTLYLQMNSLRAEDTAVYYCAKDSTVGWSGDFFDYWGLGTLVTVSS VL: EIVLTQSPATLSVSPGERVTFSCRASQNVRSDIAWYQQKPGQAPRLLIYAASSRDTGIPDRFSGSGSGTDFTLTISSLQSEDFGVYYCQQYYDWPPFTFGGGTKVEIK
0.15	–	–	–	–	Anti-SIRP-α antibody 135, light chain Mut, heavy chain wt (antibody, V domains shown) VH: DVQLVESGGGVVRPGESLRLSCAASGFSFSIYAMSWVRQAPGEGLEWVSTIGADDTYYADSVKGRFTISRDNSKNTLYLQMNSLRAEDTAVYYCAKDSTVGWSGDFFDYWGLGTLVTVSS VL: EIVLTQSPATLSVSPGERVTLSCRASQNVRSDIAWYQQKPGQAPRLLIYAASSRDTGIPARFSGSGSGTDFTLTISSLQSEDFGVYYCQQYYDWPPFTFGGGTKVEIK
0.0053	3.7	7.9	–	–	Hum1/AB21_HC_Mutall (antibody, V domains shown) VH: EVQLVESGGGVVQPGGSLRLSCAASGFTFSSNAMSWVRQAPGKGLEWVAGISAGGSDTYYPASVKGRFTISRDNSKNTLYLQMNSLRAEDTAVYYCARETWNHLFDYWGQGTLVTVSS VL: SYELTQPPSVSVSPGQTARITCSGGSYSSYYYAWYQQKPGQAPVTLIYSDDKRPSNIPERFSGSSSGTTVTLTISGVQAEDEADYYCGGYDQSSYTNPFGGGTKLTVL
0.02	–	–	71	28	Hum8/AB21_HC_Mutall (antibody, V domains shown) VH: EVQLVESGGGVVQPGGSLRLSCAASGFTFSSNAMSWVRQAPGKGLEWVAGISAGGSDTYYPASVKGRFTISRDNSKNTLYLQMNSLRAEDTAVYYCARETWNHLFDYWGQGTLVTVSS VL: SYELTQPPSVSVSPGQTARITCSGGAYSSYYYAWYQQKPGQAPVLVIYSDSKRPSGIPERFSGSSSGTTVTLTISGVQAEDEADYYCGGYDQSSYTNPFGGGTKLTVL
0.012	–	–	140	24	Hum9/AB21_HC_Mutall (antibody, V domains shown) VH: EVQLVESGGGVVQPGGSLRLSCAASGFTFSSNAMSWVRQAPGKGLEWVAGISAGGSDTYYPASVKGRFTISRDNSKNTLYLQMNSLRAEDTAVYYCARETWNHLFDYWGQGTLVTVSS VL: SYELTQPPSVSVSPGQTARITCSGGAYSSYYYAWYQQKPGQAPVLVIYSDDKRPSGIPERFSGSSSGTTVTLTISGVQAEDEADYYCGGYDQSSYTNPFGGGTKLTVL
